Here are results for 1 protein from FireProtDB (doi:10.1021/bi050342n).

The conditions of this data set: Pseudomonas aeruginosa (strain ATCC 15692 / DSM 22644 / CIP 104116 / JCM 14847 / LMG 12228 / 1C / PRS 101 / PAO1); pH 7; 25 °C; GdnHCl; Fluorescence, CD; Tris-HCl 100 mM; reversible: Yes; whole UniProt chain shown.

B1: Azurin wild type, P00282 (protein)
chain: MLRKLAAVSLLSLLSAPLLAAECSVDIQGNDQMQFNTNAITVDKSCKQFTVNLSHPGNLPKNVMGHNWVLSTAADMQGVVTDGMASGLDKDYLKPDDSRVIAHTKLIGSGEKDSVTFDVSKLKEGEQYMFFCTFPGHSALMKGTLTLK
B1: the denaturant m value was found to be 4.06 kcal/mol/M and the unfolding free energy came out at 12.9 kcal/mol.
